Molecular target: BCMA:APRIL 1:1 (human) (UniProt Q02223)
Experiment: BLI, His-tagged human BCMA on tip, then human APRIL 3000 nM, then IgG; KD cell N/A, R2 0.0887

Sequence of BCMA:APRIL 1:1 (human) (Q02223 1-54 limits assumed, chain 1 of 2): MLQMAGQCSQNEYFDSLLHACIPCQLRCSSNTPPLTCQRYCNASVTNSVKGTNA
Sequence of BCMA:APRIL 1:1 (human) (O75888 115-250 limits assumed, chain 2 of 2, further chain): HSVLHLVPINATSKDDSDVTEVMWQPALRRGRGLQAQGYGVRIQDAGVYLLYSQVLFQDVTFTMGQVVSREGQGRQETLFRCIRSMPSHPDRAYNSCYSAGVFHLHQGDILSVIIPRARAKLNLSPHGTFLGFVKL

For J6M0 (antibody), the BCMA:APRIL 1:1 response was 0.18.

Reference: US20230374147A1
